In the Immune Epitope Database (IEDB):

Experiments:
Test in all cases: IEDB peptide-MHC binding, purified MHC/competitive/radioactivity; filed as Kd, often an IC50 or EC50 that approximates it; ≥ and ≤ were set here for values at or beyond the usual limits of such assays
[1] = target: HLA-A*02:06
[2] = target: HLA-A*02:03
[3] = target: HLA-A*02:02
[4] = target: HLA-A*33:01
[5] = target: HLA-A*03:01
[6] = target: HLA-A*31:01
[7] = target: HLA-A*11:01
[8] = target: HLA-A*68:01
[9] = source organism: Vaccinia virus WR
[10] = source organism: SARS coronavirus Tor2
[11] = source organism: Lassa virus Josiah
[12] = source organism: Dengue virus 3 Martinique/1243/1999
[13] = source organism: Vaccinia virus Copenhagen
[14] = source organism: Lymphocytic choriomeningitis virus (strain Armstrong)
[15] = source organism: Mammarenavirus brazilense
[16] = source organism: Mammarenavirus juninense

Question: What does the source list for AVLSEYETMV?
Answer: Kd [1, 9]: 0.0236 µM; Kd [2, 9]: 0.00147 µM; Kd [3, 9]: 0.000758 µM

Question: Which Kd [1, 9] does the source give for CLEAKTHFST here?
Answer: ≥ 69.8 µM

Question: What about the Kd [2, 9] of the same sequence?
Answer: 11.1 µM

Question: What about the Kd [3, 9] of the same sequence?
Answer: 12.4 µM

Question: With DIDLLFNEKL as the sequence, how does the Kd [1, 9] read?
Answer: ≥ 25.7 µM

Question: And the Kd [2, 9]?
Answer: ≥ 26.7 µM

Question: And the Kd [3, 9]?
Answer: 11.2 µM

Question: DILQMREIIT was tested. Which Kd [1, 9] did it give?
Answer: 17.7 µM

Question: What about the Kd [2, 9] of the same sequence?
Answer: ≥ 56.2 µM

Question: And the Kd [3, 9]?
Answer: ≥ 45.5 µM

Question: How did the Kd [1, 9] turn out when EIARIENEM was run?
Answer: ≥ 77.1 µM

Question: What about the Kd [2, 9] of the same sequence?
Answer: ≥ 47.9 µM

Question: What about the Kd [3, 9] of the same sequence?
Answer: 0.335 µM

Question: Which Kd [1, 9] does the source give for ELKHGLLDSI here?
Answer: 1.34 µM

Question: What about the Kd [2, 9] of the same sequence?
Answer: 0.0548 µM

Question: What about the Kd [3, 9] of the same sequence?
Answer: 0.54 µM

Question: Which Kd [1, 9] does the source give for FISIYSRPKI here?
Answer: 0.396 µM

Question: What about the Kd [2, 9] of the same sequence?
Answer: 0.102 µM

Question: And the Kd [3, 9]?
Answer: 0.0228 µM

Question: Which Kd [1, 10] does the source give for FLFLAWIML here?
Answer: 0.0367 µM

Question: What about the Kd [2, 10] of the same sequence?
Answer: 0.0377 µM

Question: And the Kd [3, 10]?
Answer: 0.00181 µM

Question: What does the source list for FLFWFLKSGA?
Answer: Kd [1, 9]: 0.0228 µM; Kd [2, 9]: 0.000584 µM; Kd [3, 9]: 0.00107 µM

Question: For FQSHQLWAT, which Kd ([1]; source organism: Dengue virus 1 Singapore/S275/1990) is on record?
Answer: 0.0256 µM

Question: Which results are given for FSTSFYLISI?
Answer: Kd [1, 11]: 0.00923 µM; Kd [2, 11]: 0.0526 µM; Kd [3, 11]: 0.00213 µM

Question: With FVSTMPVET as the sequence, how does the Kd [1, 9] read?
Answer: 1.54 µM

Question: What about the Kd [2, 9] of the same sequence?
Answer: 0.391 µM

Question: What about the Kd [3, 9] of the same sequence?
Answer: 1.22 µM

Question: For GIFVDTMSI, which Kd [1, 9] is on record?
Answer: 1.62 µM

Question: What about the Kd [2, 9] of the same sequence?
Answer: 0.936 µM

Question: What about the Kd [3, 9] of the same sequence?
Answer: 2.88 µM

Question: For GLFKTLTGEI, which Kd ([2]; source organism: Dengue virus 4 Philippines/H241/1956) is on record?
Answer: 0.015 µM

Question: GLFTSLGKA was tested. Which Kd ([2]; source organism: Dengue virus 4 Dominica/814669/1981) did it give?
Answer: 0.0108 µM

Question: With GMSIVCIVA as the sequence, how does the Kd [1, 9] read?
Answer: 4.51 µM

Question: And the Kd [2, 9]?
Answer: 0.656 µM

Question: And the Kd [3, 9]?
Answer: 0.19 µM

Question: Which Kd [1, 9] does the source give for GVEVRYIDI here?
Answer: 10.2 µM

Question: What about the Kd [2, 9] of the same sequence?
Answer: ≥ 45.3 µM

Question: And the Kd [3, 9]?
Answer: 12 µM

Question: What does the source list for IIDLLLPST?
Answer: Kd [1, 9]: 1.12 µM; Kd [2, 9]: 10.3 µM; Kd [3, 9]: 15.1 µM

Question: For IIGEPIIVA, which Kd [1, 9] is on record?
Answer: 1.35 µM

Question: What about the Kd [2, 9] of the same sequence?
Answer: 4.78 µM

Question: What about the Kd [3, 9] of the same sequence?
Answer: 2.32 µM

Question: What does the source list for IILFQNNDI?
Answer: Kd [1, 9]: 12 µM; Kd [2, 9]: ≥ 52.3 µM; Kd [3, 9]: 11.3 µM

Question: Which results are given for ILANERYRSA?
Answer: Kd [1, 9]: 7.8 µM; Kd [2, 9]: 0.0183 µM; Kd [3, 9]: 0.104 µM

Question: ILHNIYRLFT was tested. Which Kd [1, 9] did it give?
Answer: 1.21 µM

Question: And the Kd [2, 9]?
Answer: 0.0107 µM

Question: What about the Kd [3, 9] of the same sequence?
Answer: 0.125 µM

Question: How did the Kd [1, 12] turn out when IMTIDLDPV was run?
Answer: 0.0348 µM

Question: And the Kd [2, 12]?
Answer: 0.0153 µM

Question: Which Kd [1, 9] does the source give for IVAAVIIMA here?
Answer: 3.57 µM

Question: And the Kd [2, 9]?
Answer: 2.66 µM

Question: What about the Kd [3, 9] of the same sequence?
Answer: 10.4 µM

Question: Which Kd [1, 9] does the source give for IVNTTYDFL here?
Answer: 2.99 µM

Question: What about the Kd [2, 9] of the same sequence?
Answer: 4.68 µM

Question: And the Kd [3, 9]?
Answer: 1.88 µM

Question: With KLYIALCKV as the sequence, how does the Kd [1, 13] read?
Answer: 0.097 µM

Question: And the Kd [2, 13]?
Answer: 0.00141 µM

Question: What about the Kd [3, 13] of the same sequence?
Answer: 0.0156 µM

Question: For KMFEATARGA, which Kd ([2]; source organism: Dengue virus 1 Brazil/97-11/1997) is on record?
Answer: 0.0511 µM

Question: What does the source list for KTEHCDDFM?
Answer: Kd [1, 9]: 2.52 µM; Kd [2, 9]: 18.1 µM; Kd [3, 9]: 6.5 µM

Question: LAEYIRHRNT was tested. Which Kd [1, 9] did it give?
Answer: ≥ 69.8 µM

Question: And the Kd [2, 9]?
Answer: 14 µM

Question: What about the Kd [3, 9] of the same sequence?
Answer: ≥ 36.1 µM

Question: With LLNMRDLIVT as the sequence, how does the Kd [1, 9] read?
Answer: 0.707 µM

Question: And the Kd [2, 9]?
Answer: 0.557 µM

Question: What about the Kd [3, 9] of the same sequence?
Answer: 1.42 µM

Question: For LNMFVSDQV, which Kd [1, 14] is on record?
Answer: 4.81 µM

Question: What about the Kd [2, 14] of the same sequence?
Answer: 0.879 µM

Question: What about the Kd [3, 14] of the same sequence?
Answer: 0.0176 µM

Question: LSNCVHPAV was tested. Which Kd [1, 15] did it give?
Answer: 0.461 µM

Question: And the Kd [2, 15]?
Answer: 1.1 µM

Question: What about the Kd [3, 15] of the same sequence?
Answer: 0.427 µM

Question: How did the Kd [1, 9] turn out when LTDVEKRIL was run?
Answer: ≥ 77.1 µM

Question: And the Kd [2, 9]?
Answer: ≥ 28.5 µM

Question: And the Kd [3, 9]?
Answer: ≥ 27.4 µM

Question: With MVDVSMMSM as the sequence, how does the Kd [1, 9] read?
Answer: 0.101 µM

Question: And the Kd [2, 9]?
Answer: 1.16 µM

Question: And the Kd [3, 9]?
Answer: 0.559 µM

Question: With NMINKLYGYA as the sequence, how does the Kd [1, 9] read?
Answer: 0.137 µM

Question: What about the Kd [2, 9] of the same sequence?
Answer: 0.000438 µM

Question: And the Kd [3, 9]?
Answer: 0.00157 µM

Question: For NMKPNFWSRI, which Kd [1, 9] is on record?
Answer: 13.9 µM

Question: And the Kd [2, 9]?
Answer: 0.193 µM

Question: And the Kd [3, 9]?
Answer: 1.68 µM

Question: With PIPMSRLFM as the sequence, how does the Kd [1, 9] read?
Answer: ≥ 31.2 µM

Question: What about the Kd [2, 9] of the same sequence?
Answer: 9.13 µM

Question: What about the Kd [3, 9] of the same sequence?
Answer: 3.89 µM

Question: Which results are given for PLTGNNTITT?
Answer: Kd [1, 9]: ≥ 69.8 µM; Kd [2, 9]: ≥ 29.5 µM; Kd [3, 9]: 7.67 µM

Question: Which Kd [1, 9] does the source give for PVIVPDIKL here?
Answer: ≥ 51.2 µM

Question: What about the Kd [2, 9] of the same sequence?
Answer: ≥ 32.7 µM

Question: And the Kd [3, 9]?
Answer: ≥ 41.2 µM

Question: Which Kd [4, 9] does the source give for QLLKILDNLR here?
Answer: 5.63 µM

Question: What about the Kd [5, 9] of the same sequence?
Answer: ≥ 70.1 µM

Question: What about the Kd [6, 9] of the same sequence?
Answer: 0.0691 µM

Question: What about the Kd [7, 9] of the same sequence?
Answer: 15.1 µM

Question: What about the Kd [8, 9] of the same sequence?
Answer: 0.561 µM

Question: What does the source list for QQFANVISK?
Answer: Kd [4, 9]: ≥ 28.3 µM; Kd [5, 9]: 0.0556 µM; Kd [6, 9]: 1.32 µM; Kd [7, 9]: 0.00238 µM; Kd [8, 9]: 0.71 µM

Question: RLCLFDRYFK was tested. Which Kd [4, 10] did it give?
Answer: 1.95 µM

Question: What about the Kd [5, 10] of the same sequence?
Answer: 0.0238 µM

Question: And the Kd [6, 10]?
Answer: 0.0461 µM

Question: What about the Kd [7, 10] of the same sequence?
Answer: 0.0565 µM

Question: And the Kd [8, 10]?
Answer: 0.861 µM

Question: For RLFRSPQVK, which Kd [4, 9] is on record?
Answer: 15.3 µM

Question: What about the Kd [5, 9] of the same sequence?
Answer: 0.0872 µM

Question: And the Kd [6, 9]?
Answer: 4.96 µM

Question: What about the Kd [7, 9] of the same sequence?
Answer: 0.715 µM

Question: What about the Kd [8, 9] of the same sequence?
Answer: 3.67 µM

Question: For RTRCKYVGCT, which Kd [1, 9] is on record?
Answer: 11.6 µM

Question: And the Kd [2, 9]?
Answer: 12.3 µM

Question: What about the Kd [3, 9] of the same sequence?
Answer: 0.149 µM

Question: Which results are given for RVKQWVMDT?
Answer: Kd [1, 9]: 13.5 µM; Kd [2, 9]: 0.00361 µM; Kd [3, 9]: 3.63 µM

Question: For SIDHCSSFI, which Kd [1, 9] is on record?
Answer: 0.199 µM

Question: What about the Kd [2, 9] of the same sequence?
Answer: 0.0129 µM

Question: What about the Kd [3, 9] of the same sequence?
Answer: 0.631 µM

Question: Which results are given for SIHLTKTDK?
Answer: Kd [4, 9]: ≥ 48.3 µM; Kd [5, 9]: 0.00674 µM; Kd [6, 9]: 9.44 µM; Kd [7, 9]: 0.00938 µM; Kd [8, 9]: 0.14 µM

Question: Which Kd [4, 14] does the source give for SKFWYLEHAK here?
Answer: 0.879 µM

Question: What about the Kd [5, 14] of the same sequence?
Answer: 18.8 µM

Question: What about the Kd [6, 14] of the same sequence?
Answer: 1.01 µM

Question: What about the Kd [7, 14] of the same sequence?
Answer: 5.19 µM

Question: And the Kd [8, 14]?
Answer: ≥ 30.6 µM

Question: What does the source list for SKQYIHCFRK?
Answer: Kd [4, 16]: ≥ 26.1 µM; Kd [5, 16]: 4.5 µM; Kd [6, 16]: 0.898 µM; Kd [7, 16]: 1.52 µM; Kd [8, 16]: 2.54 µM
